The assay addresses KCNQ1 of the KCNQ1APO structure (human) (UniProt P51787). Description: cryo-EM structure; human KCNQ1 with CaM, apo state; C4 symmetry, 2.5 Å.

In the case of “KCNQ1 of the KCNQ1APO structure (from UniProt P51787 1-676) (natural protein)”, the stoichiometry N came out at 4.

The term stoichiometry N denotes a count of units in the complex or per binding partner.
